Target: gp53C, C-terminal fragment of gene product 53 (gp53) of Acinetobacter baumannii bacteriophage AP22 (Acinetobacter baumannii bacteriophage AP22)
Test: crystal structure

Q: With “gp53C, C-terminal fragment of gene product 53 (gp53) of Acinetobacter baumannii bacteriophage AP22 (domain or fragment)” as the substance, how does the stoichiometry N read?
A: 3

Reference: doi:10.1101/518761
